From patent US20110263454A1, “Methods of Identifying Functional Characteristics of Promoters, Transcription Modifying Proteins and Transcription Modulating Agents” (Salk Institute for Biological Studies, priority 2008, published 2011)

B1: RVRa: Rev-Erb α (NR1D1), cDNA driver (protein, UniProt P20393 1-614, looked up)
Nuclear receptor subfamily 1 …: MTTLDSNNNTGGVITYIGSSGSSPSRTSPESLYSDNSNGSFQSLTQGCPTYFPPSPTGSLTQDPARSFGSIPPSLSDDGSPSSSSSSSSSSSSFYNGSPPGSLQVAMEDSSRVSPSKSTSNITKLNGMVLLCKVCGDVASGFHYGVHACEGCKGFFRRSIQQNIQYKRCLKNENCSIVRINRNRCQQCRFKKCLSVGMSRDAVRFGRIPKREKQRMLAEMQSAMNLANNQLSSQCPLETSPTQHPTPGPMGPSPPPAPVPSPLVGFSQFPQQLTPPRSPSPEPTVEDVISQVARAHREIFTYAHDKLGSSPGNFNANHASGSPPATTPHRWENQGCPPAPNDNNTLAAQRHNEALNGLRQAPSSYPPTWPPGPAHHSCHQSNSNGHRLCPTHVYAAPEGKAPANSPRQGNSKNVLLACPMNMYPHGRSGRTVQEIWEDFSMSFTPAVREVVEFAKHIPGFRDLSQHDQVTLLKAGTFEVLMVRFASLFNVKDQTVMFLSRTTYSLQELGAMGMGDLLSAMFDFSEKLNSLALTEEELGLFTAVVLVSADRSGMENSASVEQLQETLLRALRALVLKNRPLETSRFTKLLLKLPDLRTLNNMHSEKLLSFRVDAQ
B2: RARa: Retinoic acid receptor α (NR1B1), nuclear hormone receptor cDNA driver (protein, UniProt P10276 1-462, looked up)
Retinoic acid receptor alpha: MASNSSSCPTPGGGHLNGYPVPPYAFFFPPMLGGLSPPGALTTLQHQLPVSGYSTPSPATIETQSSSSEEIVPSPPSPPPLPRIYKPCFVCQDKSSGYHYGVSACEGCKGFFRRSIQKNMVYTCHRDKNCIINKVTRNRCQYCRLQKCFEVGMSKESVRNDRNKKKKEVPKPECSESYTLTPEVGELIEKVRKAHQETFPALCQLGKYTTNNSSEQRVSLDIDLWDKFSELSTKCIIKTVEFAKQLPGFTTLTIADQITLLKAACLDILILRICTRYTPEQDTMTFSDGLTLNRTQMHNAGFGPLTDLVFAFANQLLPLEMDDAETGLLSAICLICGDRQDLEQPDRVDMLQEPLLEALKVYVRKRRPSRPHMFPKMLMKITDLRSISAKGAERVITLKMEIPGSMPPLIQEMLENSEGLDTLSGQPGGGGRDGGGLAPPPGSCSPSLSPSSNRSSPATHSP
B3: RVRb: Rev-Erb β (NR1D2, alternative name RVR), cDNA driver (protein, UniProt Q14995 1-579, looked up)
Nuclear receptor subfamily 1 …: MEVNAGGVIAYISSSSSASSPASCHSEGSENSFQSSSSSVPSSPNSSNSDTNGNPKNGDLANIEGILKNDRIDCSMKTSKSSAPGMTKSHSGVTKFSGMVLLCKVCGDVASGFHYGVHACEGCKGFFRRSIQQNIQYKKCLKNENCSIMRMNRNRCQQCRFKKCLSVGMSRDAVRFGRIPKREKQRMLIEMQSAMKTMMNSQFSGHLQNDTLVEHHEQTALPAQEQLRPKPQLEQENIKSSSPPSSDFAKEEVIGMVTRAHKDTFMYNQEQQENSAESMQPQRGERIPKNMEQYNLNHDHCGNGLSSHFPCSESQQHLNGQFKGRNIMHYPNGHAICIANGHCMNFSNAYTQRVCDRVPIDGFSQNENKNSYLCNTGGRMHLVCPMSKSPYVDPHKSGHEIWEEFSMSFTPAVKEVVEFAKRIPGFRDLSQHDQVNLLKAGTFEVLMVRFASLFDAKERTVTFLSGKKYSVDDLHSMGAGDLLNSMFEFSEKLNALQLSDEEMSLFTAVVLVSADRSGIENVNSVEALQETLIRALRTLIMKNHPNEASIFTKLLLKLPDLRSLNNMHSEELLAFKVHP
B4: RORg: RAR-related Orphan Receptor γ (NR1F3), cDNA driver (protein, UniProt P51449 1-518, looked up)
Nuclear receptor ROR-gamma: MDRAPQRQHRASRELLAAKKTHTSQIEVIPCKICGDKSSGIHYGVITCEGCKGFFRRSQRCNAAYSCTRQQNCPIDRTSRNRCQHCRLQKCLALGMSRDAVKFGRMSKKQRDSLHAEVQKQLQQRQQQQQEPVVKTPPAGAQGADTLTYTLGLPDGQLPLGSSPDLPEASACPPGLLKASGSGPSYSNNLAKAGLNGASCHLEYSPERGKAEGRESFYSTGSQLTPDRCGLRFEEHRHPGLGELGQGPDSYGSPSFRSTPEAPYASLTEIEHLVQSVCKSYRETCQLRLEDLLRQRSNIFSREEVTGYQRKSMWEMWERCAHHLTEAIQYVVEFAKRLSGFMELCQNDQIVLLKAGAMEVVLVRMCRAYNADNRTVFFEGKYGGMELFRALGCSELISSIFDFSHSLSALHFSEDEIALYTALVLINAHRPGLQEKRKVEQLQYNLELAFHHHLCKTHRQSILAKLPPKGKLRSLCSQHVERLQIFQHLHPIVVQAAFPPLYKELFSTETESPVGLSK

test system: hCAR promoter; test: NHR-promoter luciferase screen, hCAR promoter; assay type: cell-based, human; details: hCAR promoter-luciferase, CV-1 cells, NHR +/- ligand, control = 1.00
Method: (§1) The use, feasibility, and reproducibility of the functional NHR-promoter screen in a 48-well format have been tested validated. Briefly, there were co-expressed 50 ng of each NHR/NHR homodimer or NHR/RXR heterodimer with 100 ng promoter/luciferase construct and 50 ng of LacZ (as a control for transfection efficiency) in CV-1 cells using Fugene HD (Roche) as a transfection reagent (alternatively or additionally, a CMV-YFP construct can be used as a transfection control). Each of the nuclear hormone receptors that were used in these experiments was cloned into a pcDNA3.1 vector and comprised a C-terminally linked V5H6 tag. Twenty-four hours after transfection, appropriate ligands were added, where applicable, (see Table 5 for various ligands and concentrations and after 48 hrs, samples were assayed for luciferase and LacZ activity. To measure for luciferase activity 15 ul of sample was added to 30 ul of luciferase buffer (20 mM tricine, 1.07 mM MgCarbonate, 2.67 mM MgSulfate, 0.1 mM Naz-EDTA, 5 mM DTT, 5 mM ATP, 0.15 mg/ml CoA, 0.5 mM Luciferin), mixed briefly, and run in a Perkin Elmer Victor 5 luminometer. Thus, the functional NHR-promoter screen was used to observe the transcriptional activity of 29 promoters from various physiological pathways including inflammation, lipid and sugar metabolism, cholesterol transport, xenobiotic metabolism, and circadian rhythm.
(§2) The promoters that facilitate transcription of the indicated gene products that were tested using the protocols described herein are listed in the first row of the table. The nuclear hormone receptors and, where applicable, ligands that were assayed for their transcriptional effects on the promoters are listed in the first column of the table. The data represent the luciferase activity of each sample normalized to both the lacZ activity of that sample and to a control, e.g., no NHR or ligand, as customary in the art. As described previously, these normalizations allow the transcriptional activity of each reporter cell to be compared to other samples.
(§3) Tables 7-40 show the transcriptional effects of the hormone receptors, and, where applicable, ligands (orphan receptors are screened without ligand), on each individual promoter. […] The control data of each table are shown in their last rows.

| Molecule | luciferase activity normalized to lacZ activity and to a control, hCAR |
| --- | --- |
| B1 | 1.05 |
| B2 | 1.05 |
| B3 | 1.13 |
| B4 | 1.22 |

same assay, conditions: hCAR promoter; HR/ligand component

| Molecule | Luc. act., normalized to lacZ | Normalized Luc. act., normalized to control |
| --- | --- | --- |
| B1 | 33.3 | 1.1 |
| B2 | 33.2 | 1.1 |
| B3 | 35.7 | 1.1 |
| B4 | 38.6 | 1.2 |

test system: mPer1 promoter; test: NHR-promoter luciferase screen, mPer1 promoter; assay type: cell-based, mouse; details: Per1 promoter reporter; co-transfected HR, with or without its ligand
Method: as §1, §2, §3

| Molecule | Luc. act., normalized to lacZ |
| --- | --- |
| B1 | 98.6 |
| B2 | 85.4 |
| B3 | 118.3 |
| B4 | 176.3 |

same assay, conditions: Per1 promoter reporter; co-transfected HR, with or without its ligand; relative to control

| Molecule | Normalized Luc. act., normalized to control |
| --- | --- |
| B1 | 0.7 |
| B2 | 0.6 |
| B3 | 0.8 |
| B4 | 1.2 |

same assay, conditions: mPer1 promoter-luciferase, CV-1 cells, NHR +/- ligand, control = 1.00

| Molecule | luciferase activity normalized to lacZ activity and to a control, mPer1 |
| --- | --- |
| B1 | 0.68 |
| B2 | 0.59 |
| B3 | 0.82 |
| B4 | 1.22 |

test system: mUCP1 promoter; test: NHR-promoter luciferase screen, mUCP1 promoter; assay type: cell-based, mouse; details: mUCP1 promoter reporter; co-transfected HR, with or without its ligand
Method: as §1, §2, §3

| Molecule | Luc. act., normalized to lacZ |
| --- | --- |
| B1 | 3.8 |
| B2 | 2.8 |
| B3 | 4.3 |
| B4 | 2.8 |

same assay, conditions: mUCP1 promoter reporter; co-transfected HR, with or without its ligand; relative to control

| Molecule | Normalized Luc. act., normalized to control |
| --- | --- |
| B1 | 0.8 |
| B2 | 0.6 |
| B3 | 1.0 |
| B4 | 0.6 |

same assay, conditions: mUCP! promoter-luciferase, CV-1 cells, NHR +/- ligand, control = 1.00

| Molecule | luciferase activity normalized to lacZ activity and to a control, mUCP! |
| --- | --- |
| B1 | 0.85 |
| B2 | 0.63 |
| B3 | 0.96 |
| B4 | 0.62 |

test system: mAgrp promoter; test: NHR-promoter luciferase screen, mAgrp promoter; assay type: cell-based, mouse; details: Table 6d; luciferase activity relative to control (control = 1.00)
Method: as §1, §2, §3

| Molecule | Results of assays of transcription factor (+/- ligand) with mAgrp |
| --- | --- |
| B1 | 1.21 |
| B2 | 2.05 |
| B3 | 1.05 |
| B4 | 2.51 |

same assay, conditions: mAgrp promoter; HR component with or without ligand

| Molecule | Luc. act., normalized to lacZ |
| --- | --- |
| B1 | 47.9 |
| B2 | 81.1 |
| B3 | 41.7 |
| B4 | 99.6 |

same assay, conditions: mAgrp promoter; HR component with or without ligand; relative to control

| Molecule | Normalized Luc. act., normalized to control |
| --- | --- |
| B1 | 1.2 |
| B2 | 2.0 |
| B3 | 1.1 |
| B4 | 2.5 |

test system: hCYP3A4 promoter; test: NHR-promoter luciferase screen, hCYP3A4 promoter; assay type: cell-based, human; details: CYP3A4 promoter; HR/ligand component
Method: Briefly, there were co-expressed 50 ng of each NHR/NHR homodimer or NHR/RXR heterodimer with 100 ng promoter/luciferase construct and 50 ng of LacZ (as a control for transfection efficiency) in CV-1 cells using Fugene HD (Roche) as a transfection reagent (alternatively or additionally, a CMV-YFP construct can be used as a transfection control). Each of the nuclear hormone receptors that were used in these experiments was cloned into a pcDNA3.1 vector and comprised a C-terminally linked V5H6 tag.
as §2, §3

| Molecule | Luc. act., normalized to lacZ | Normalized Luc. act., normalized to control |
| --- | --- | --- |
| B1 | 2.2 | 0.5 |
| B2 | 4.2 | 0.9 |
| B3 | 4.5 | 1.0 |
| B4 | 3.4 | 0.8 |

same assay, conditions: transcription factor +/- ligand; control = 1.00

| Molecule | hCYP3A4 promoter reporter activity |
| --- | --- |
| B1 | 0.50 |
| B2 | 0.94 |
| B3 | 1.01 |
| B4 | 0.76 |

test system: hPPARg1 promoter; test: NHR-promoter luciferase screen, hPPARg1 promoter; assay type: cell-based, human; details: PPARG1 promoter; hormone receptor with or without its ligand
Method: as §1, §2, §3

| Molecule | Luc. act., normalized to lacZ |
| --- | --- |
| B1 | 45.9 |
| B2 | 86.6 |
| B3 | 55.5 |
| B4 | 81.5 |

same assay, conditions: PPARG1 promoter; hormone receptor with or without its ligand; relative to control

| Molecule | Normalized Luc. act., normalized to control |
| --- | --- |
| B1 | 0.7 |
| B2 | 1.3 |
| B3 | 0.8 |
| B4 | 1.2 |

same assay, conditions: Table 6d; luciferase activity relative to control (control = 1.00)

| Molecule | Results of assays of transcription factor (+/- ligand) with hPPARg1 |
| --- | --- |
| B1 | 0.67 |
| B2 | 1.26 |
| B3 | 0.81 |
| B4 | 1.18 |
